Reference: publication doi:10.1101/2021.12.08.471876 (bioRxiv, 2021)

Key:
[1] = target: T1, purified recombinant GRP78 protein (GRP78-His) (human, UniProt P11021 19-654, NT-647 fluorescent label (in the MST only)); test: MST
[2] = target: T1, purified recombinant GRP78 protein …; test: ITC

T1 sequence (P11021 19-654): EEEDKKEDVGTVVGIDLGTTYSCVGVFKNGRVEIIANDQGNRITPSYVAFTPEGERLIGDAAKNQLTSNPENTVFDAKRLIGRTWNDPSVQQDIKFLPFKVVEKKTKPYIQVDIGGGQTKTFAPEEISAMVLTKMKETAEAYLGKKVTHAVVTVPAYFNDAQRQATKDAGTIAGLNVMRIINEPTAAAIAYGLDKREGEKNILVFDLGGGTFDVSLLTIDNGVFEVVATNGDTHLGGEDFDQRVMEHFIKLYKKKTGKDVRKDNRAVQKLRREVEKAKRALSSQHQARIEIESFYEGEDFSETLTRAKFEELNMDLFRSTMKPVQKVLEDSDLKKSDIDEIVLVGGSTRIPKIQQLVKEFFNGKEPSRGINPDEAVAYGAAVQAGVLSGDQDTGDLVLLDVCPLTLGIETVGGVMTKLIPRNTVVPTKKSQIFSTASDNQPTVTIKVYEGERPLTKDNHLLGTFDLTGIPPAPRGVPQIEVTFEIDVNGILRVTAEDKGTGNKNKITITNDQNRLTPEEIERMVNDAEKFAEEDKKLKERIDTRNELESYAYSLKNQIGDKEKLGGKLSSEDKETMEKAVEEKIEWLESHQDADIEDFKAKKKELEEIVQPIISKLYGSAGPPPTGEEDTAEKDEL

B1: GST-preS1 truncated protein preS1-p2 (residues 25-90) (domain or fragment)
chain: FPDHQLDPAFGANSNNPDWDFNPNKDHWPEANQVGAGAFGPGFTPPHGGLLGWSPQAQGILTTLPA
Question: For B1, which Kd [1] is on record?
Answer: 1.2 µM

B2: GST-preS1 truncated protein preS1-p3 (residues 66-119) (domain or fragment)
chain: GFTPPHGGLLGWSPQAQGILTTLPAAPPPASTNRQSGRQPTPISPPLRDSHPQA
Question: For B2, which Kd [1] is on record?
Answer: 0.431 µM

Question: QGIMQTVPAN [pep59] was tested. Which Kd [2] did it give?
Answer: 0.0106 µM

Question: How did the Kd [2] turn out when DPAFGANSL [pep56] was run?
Answer: 0.00659 µM
